From patent US20220251159A1

Molecular target: fluorescently labeled WTp53DBD (MST assay) (UniProt P04637)
Experiment: MST; FIG. 3D; myristoylated

Sequence of fluorescently labeled WTp53DBD (MST assay) (P04637 94-312): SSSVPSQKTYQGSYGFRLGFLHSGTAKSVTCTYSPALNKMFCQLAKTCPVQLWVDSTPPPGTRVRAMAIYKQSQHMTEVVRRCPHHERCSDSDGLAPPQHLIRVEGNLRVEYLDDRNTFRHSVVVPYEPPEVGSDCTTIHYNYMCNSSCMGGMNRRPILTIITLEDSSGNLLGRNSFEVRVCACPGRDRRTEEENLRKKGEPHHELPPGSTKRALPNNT

Kd: 30 µM
Substance: pCAP-402 myr-HSTPHPD
